Measured values published in patent publication US20160031945A1 (INDIANA UNIVERSITY RESEARCH AND TECHNOLOGY, published 2016).

Tests used:
[1] = target: T1, CaV2.2 Ct-dis-GST fusion protein (distal end of the C-terminus of CaV2.2) (rat, UniProt Q02294 2121-2336); assay: SPR (BIAcore 3000), immobilized Ct-dis-GST
T1 construct: range 2133-2348; also called distal C-terminus; not shown: GST tag of the pGex-3x-Glu vector

[2] = target: T2, CaV2.2 L1-GST fusion protein (first cytosolic loop of CaV2.2) (rat, UniProt Q02294 356-483); assay: SPR (BIAcore 3000), immobilized L1-GST
T2 construct: range 356-483; also called cytosolic loop 1; first intracellular loop; not shown: GST tag of the pGex-3x-Glu vector
T2 sequence (Q02294 other isoform, or with tags, fused parts or gaps): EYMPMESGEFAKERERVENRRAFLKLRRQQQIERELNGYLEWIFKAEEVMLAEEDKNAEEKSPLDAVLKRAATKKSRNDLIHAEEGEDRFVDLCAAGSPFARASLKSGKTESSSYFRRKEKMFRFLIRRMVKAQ

T1 sequence (Q02294 other isoform, or with tags, fused parts or gaps): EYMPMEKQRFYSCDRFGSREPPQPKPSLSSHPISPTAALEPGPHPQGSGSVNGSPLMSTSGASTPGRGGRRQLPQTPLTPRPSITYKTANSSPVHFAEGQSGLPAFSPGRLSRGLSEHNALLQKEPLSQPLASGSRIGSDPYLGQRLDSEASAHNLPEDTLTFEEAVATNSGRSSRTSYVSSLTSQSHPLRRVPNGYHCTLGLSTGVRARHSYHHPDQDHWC

B1: TAT-Scramble (modified TAT sequence coupled to a random sequence) (peptide)
peptide: YGRKKRRQRRRWEAKEMLYFEALVIE
notes: also called TAT control; scramble peptide
[1]
  binding result: no binding (tested: 1/3/5 µM)
[2]
  binding result: no binding (tested: 1/3/5 µM)
